{"source": "IntAct's records for PubMed 29039417", "parents": {"B1": {"name": "BBSome complex member BBS2 (Homo sapiens), Q9BXC9 (parent)", "chain": "MLLPVFTLKLRHKISPRMVAIGRYDGTHPCLAAATQTGKVFIHNPHTRNQHVSASRVFQSPLESDVSLLSINQAVSCLTAGVLNPELGYDALLVGTQTNLLAYDVYNNSDLFYREVADGANAIVLGTLGDISSPLAIIGGNCALQGFNHEGSDLFWTVTGDNVNSLALCDFDGDGKKELLVGSEDFDIRVFKEDEIVAEMTETEIVTSLCPMYGSRFGYALSNGTVGVYDKTSRYWRIKSKNHAMSIHAFDLNSDGVNELITGWSNGKVDARSDRTGEVIFKDNFSSAIAGVVEGDYRMDGHIQLICCSVDGEIRGYLPGTAEMRGNLMDTSAEQDLIRELSQKKQNLLLELRNYEENAKAELASPLNEADGHRGIIPANTRLHTTLSVSLGNETQTAHTELRISTSNDTIIRAVLIFAEGIFTGESHVVHPSIHNLSSSICIPIVPPKDVPVDLHLKAFVGYRSSTQFHVFESTRQLPRFSMYALTSLDPASEPISYVNFTIAERAQRVVVWLGQNFLLPEDTHIQNAPFQVCFTSLRNGGHLHIKIKLSGEITINTDDIDLAGDIIQSMASFFAIEDLQVEADFPVYFEELRKVLVKVDEYHSVHQKLSADMADHSNLIRSLLVGAEDARLMRDMKTMKSRYMELYDLNRDLLNGYKIRCNNHTELLGNLKAVNQAIQRAGRLRVGKPKNQVITACRDAIRSNNINTLFKIMRVGTASS", "partner": "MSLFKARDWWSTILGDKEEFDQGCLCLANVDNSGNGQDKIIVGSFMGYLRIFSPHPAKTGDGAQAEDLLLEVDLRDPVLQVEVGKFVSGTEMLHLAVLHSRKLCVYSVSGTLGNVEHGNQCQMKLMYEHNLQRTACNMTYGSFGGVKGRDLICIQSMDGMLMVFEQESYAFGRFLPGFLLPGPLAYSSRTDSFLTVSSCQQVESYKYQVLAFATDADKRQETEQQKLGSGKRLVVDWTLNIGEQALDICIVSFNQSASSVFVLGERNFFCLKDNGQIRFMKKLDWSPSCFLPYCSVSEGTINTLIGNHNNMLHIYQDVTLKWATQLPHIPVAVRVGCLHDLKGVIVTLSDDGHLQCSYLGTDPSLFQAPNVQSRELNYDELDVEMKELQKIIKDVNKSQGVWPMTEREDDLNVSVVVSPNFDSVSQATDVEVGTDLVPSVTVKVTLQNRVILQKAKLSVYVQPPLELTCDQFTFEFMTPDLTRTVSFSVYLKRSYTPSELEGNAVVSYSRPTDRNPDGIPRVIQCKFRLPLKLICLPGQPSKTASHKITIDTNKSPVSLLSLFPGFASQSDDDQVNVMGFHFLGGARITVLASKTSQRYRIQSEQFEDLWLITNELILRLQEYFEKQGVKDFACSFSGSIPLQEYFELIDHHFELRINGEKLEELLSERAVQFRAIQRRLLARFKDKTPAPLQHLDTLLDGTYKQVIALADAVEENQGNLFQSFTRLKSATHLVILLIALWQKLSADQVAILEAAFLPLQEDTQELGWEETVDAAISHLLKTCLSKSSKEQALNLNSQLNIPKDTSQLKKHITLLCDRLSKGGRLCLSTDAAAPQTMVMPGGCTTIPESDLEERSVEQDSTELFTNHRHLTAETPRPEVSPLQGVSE"}}}
{"variants_of": "B1", "conditions": "with pthb1_human BBS9, Q3SYG4"}
{"variant": "A504E", "effect of a mutation on the interaction": "with no effect"}
{"variant": "N656E", "effect of a mutation on the interaction": "with no effect"}
{"variant": "G542K", "effect of a mutation on the interaction": "with no effect"}
{"variant": "E357A", "effect of a mutation on the interaction": "with no effect"}
{"variant": "L457E", "effect of a mutation on the interaction": "disrupting interaction strength"}
{"variant": "E494A", "effect of a mutation on the interaction": "with no effect"}
{"variant": "L383A", "effect of a mutation on the interaction": "with no effect"}
{"variant": "Q527K", "effect of a mutation on the interaction": "with no effect"}
{"variant": "K609E", "effect of a mutation on the interaction": "with no effect"}
{"variant": "S405A", "effect of a mutation on the interaction": "with no effect"}
{"variant": "P444A", "effect of a mutation on the interaction": "with no effect"}
{"variant": "N436A", "effect of a mutation on the interaction": "with no effect"}
{"variant": "K458E", "effect of a mutation on the interaction": "with no effect"}
{"variant": "S623E", "effect of a mutation on the interaction": "with no effect"}
{"variant": "M571E", "effect of a mutation on the interaction": "with no effect"}
{"variant": "S704E", "effect of a mutation on the interaction": "with no effect"}
{"variant": "S704K", "effect of a mutation on the interaction": "with no effect"}
{"variant": "T709A", "effect of a mutation on the interaction": "with no effect"}
{"variant": "Y603E", "effect of a mutation on the interaction": "with no effect"}
{"variant": "V471K", "effect of a mutation on the interaction": "with no effect"}
{"variant": "Q508E", "effect of a mutation on the interaction": "with no effect"}
{"variant": "R339A", "effect of a mutation on the interaction": "with no effect"}
{"variant": "R715A", "effect of a mutation on the interaction": "with no effect"}
{"variant": "V389K", "effect of a mutation on the interaction": "disrupting interaction strength"}
{"variant": "F418E", "effect of a mutation on the interaction": "with no effect"}
{"variant": "G392K", "effect of a mutation on the interaction": "with no effect"}
{"variant": "L563E", "effect of a mutation on the interaction": "with no effect"}
{"variant": "A333K", "effect of a mutation on the interaction": "with no effect"}
{"variant": "L416K", "effect of a mutation on the interaction": "with no effect"}
{"variant": "L416A", "effect of a mutation on the interaction": "with no effect"}
{"variant": "F711E", "effect of a mutation on the interaction": "with no effect"}
{"variant": "C534A", "effect of a mutation on the interaction": "with no effect"}
{"variant": "L620A", "effect of a mutation on the interaction": "with no effect"}
{"variant": "P495A", "effect of a mutation on the interaction": "with no effect"}
{"variant": "E473K", "effect of a mutation on the interaction": "with no effect"}
{"variant": "I548E", "effect of a mutation on the interaction": "with no effect"}
{"variant": "A485S", "effect of a mutation on the interaction": "disrupting interaction strength"}
{"variant": "E505A", "effect of a mutation on the interaction": "with no effect"}
{"variant": "L455P", "effect of a mutation on the interaction": "disrupting interaction strength"}
{"variant": "R506K", "effect of a mutation on the interaction": "with no effect"}
{"variant": "R506E", "effect of a mutation on the interaction": "with no effect"}
{"variant": "C442E", "effect of a mutation on the interaction": "with no effect"}
{"variant": "D579K", "effect of a mutation on the interaction": "with no effect"}
{"variant": "R594K", "effect of a mutation on the interaction": "with no effect"}
{"variant": "G627K", "effect of a mutation on the interaction": "with no effect"}
{"variant": "S440A", "effect of a mutation on the interaction": "with no effect"}
{"variant": "L514A", "effect of a mutation on the interaction": "with no effect"}
{"variant": "N408A", "effect of a mutation on the interaction": "disrupting interaction strength"}
{"variant": "V606E", "effect of a mutation on the interaction": "with no effect"}
{"variant": "L669A", "effect of a mutation on the interaction": "with no effect"}
{"variant": "S611E", "effect of a mutation on the interaction": "with no effect"}
{"variant": "G515R", "effect of a mutation on the interaction": "disrupting interaction strength"}
{"variant": "L654A", "effect of a mutation on the interaction": "with no effect"}
{"variant": "S433E", "effect of a mutation on the interaction": "with no effect"}
{"variant": "S493A", "effect of a mutation on the interaction": "with no effect"}
{"variant": "I417A", "effect of a mutation on the interaction": "with no effect"}
{"variant": "S388A", "effect of a mutation on the interaction": "with no effect"}
{"variant": "G552K", "effect of a mutation on the interaction": "with no effect"}
{"variant": "V687E", "effect of a mutation on the interaction": "with no effect"}
{"variant": "I404E", "effect of a mutation on the interaction": "with no effect"}
{"variant": "I434A", "effect of a mutation on the interaction": "with no effect"}
{"variant": "N663E", "effect of a mutation on the interaction": "with no effect"}
{"variant": "I561F", "effect of a mutation on the interaction": "disrupting interaction strength"}
{"variant": "T487K", "effect of a mutation on the interaction": "with no effect"}
{"variant": "D559K", "effect of a mutation on the interaction": "with no effect"}
{"variant": "E578A", "effect of a mutation on the interaction": "with no effect"}
{"variant": "V582A", "effect of a mutation on the interaction": "with no effect"}
{"variant": "N354A", "effect of a mutation on the interaction": "with no effect"}
{"variant": "T331A", "effect of a mutation on the interaction": "with no effect"}
{"variant": "T406A", "effect of a mutation on the interaction": "with no effect"}
{"variant": "A529E", "effect of a mutation on the interaction": "with no effect"}
{"variant": "L478P", "effect of a mutation on the interaction": "disrupting interaction strength"}
{"variant": "L478K", "effect of a mutation on the interaction": "disrupting interaction strength"}
{"variant": "N347E", "effect of a mutation on the interaction": "with no effect"}
{"variant": "D336K", "effect of a mutation on the interaction": "with no effect"}
{"variant": "Q569E", "effect of a mutation on the interaction": "with no effect"}
{"variant": "K449E", "effect of a mutation on the interaction": "with no effect"}
{"variant": "L610E", "effect of a mutation on the interaction": "with no effect"}
{"variant": "L610K", "effect of a mutation on the interaction": "with no effect"}
{"variant": "I577E", "effect of a mutation on the interaction": "with no effect"}
{"variant": "T524A", "effect of a mutation on the interaction": "with no effect"}
{"variant": "V451A", "effect of a mutation on the interaction": "with no effect"}
{"variant": "E646A", "effect of a mutation on the interaction": "with no effect"}
{"variant": "K360E", "effect of a mutation on the interaction": "with no effect"}
{"variant": "D450A", "effect of a mutation on the interaction": "with no effect"}
{"variant": "V598A", "effect of a mutation on the interaction": "with no effect"}
{"variant": "D523A", "effect of a mutation on the interaction": "with no effect"}
{"variant": "R635K", "effect of a mutation on the interaction": "with no effect"}
{"variant": "D636A", "effect of a mutation on the interaction": "with no effect"}
